Source: patent US10125171 (APELLIS PHARMACEUTICALS, dated 2018)
Blank lines part the entries; values can stand above or below the binder they belong to.

Molecular target: human complement component C3 (human, UniProt P01024 23-1663)
Assay: cell-based or functional assay

Chain of human complement component C3 (P01024 23-1663 limits assumed): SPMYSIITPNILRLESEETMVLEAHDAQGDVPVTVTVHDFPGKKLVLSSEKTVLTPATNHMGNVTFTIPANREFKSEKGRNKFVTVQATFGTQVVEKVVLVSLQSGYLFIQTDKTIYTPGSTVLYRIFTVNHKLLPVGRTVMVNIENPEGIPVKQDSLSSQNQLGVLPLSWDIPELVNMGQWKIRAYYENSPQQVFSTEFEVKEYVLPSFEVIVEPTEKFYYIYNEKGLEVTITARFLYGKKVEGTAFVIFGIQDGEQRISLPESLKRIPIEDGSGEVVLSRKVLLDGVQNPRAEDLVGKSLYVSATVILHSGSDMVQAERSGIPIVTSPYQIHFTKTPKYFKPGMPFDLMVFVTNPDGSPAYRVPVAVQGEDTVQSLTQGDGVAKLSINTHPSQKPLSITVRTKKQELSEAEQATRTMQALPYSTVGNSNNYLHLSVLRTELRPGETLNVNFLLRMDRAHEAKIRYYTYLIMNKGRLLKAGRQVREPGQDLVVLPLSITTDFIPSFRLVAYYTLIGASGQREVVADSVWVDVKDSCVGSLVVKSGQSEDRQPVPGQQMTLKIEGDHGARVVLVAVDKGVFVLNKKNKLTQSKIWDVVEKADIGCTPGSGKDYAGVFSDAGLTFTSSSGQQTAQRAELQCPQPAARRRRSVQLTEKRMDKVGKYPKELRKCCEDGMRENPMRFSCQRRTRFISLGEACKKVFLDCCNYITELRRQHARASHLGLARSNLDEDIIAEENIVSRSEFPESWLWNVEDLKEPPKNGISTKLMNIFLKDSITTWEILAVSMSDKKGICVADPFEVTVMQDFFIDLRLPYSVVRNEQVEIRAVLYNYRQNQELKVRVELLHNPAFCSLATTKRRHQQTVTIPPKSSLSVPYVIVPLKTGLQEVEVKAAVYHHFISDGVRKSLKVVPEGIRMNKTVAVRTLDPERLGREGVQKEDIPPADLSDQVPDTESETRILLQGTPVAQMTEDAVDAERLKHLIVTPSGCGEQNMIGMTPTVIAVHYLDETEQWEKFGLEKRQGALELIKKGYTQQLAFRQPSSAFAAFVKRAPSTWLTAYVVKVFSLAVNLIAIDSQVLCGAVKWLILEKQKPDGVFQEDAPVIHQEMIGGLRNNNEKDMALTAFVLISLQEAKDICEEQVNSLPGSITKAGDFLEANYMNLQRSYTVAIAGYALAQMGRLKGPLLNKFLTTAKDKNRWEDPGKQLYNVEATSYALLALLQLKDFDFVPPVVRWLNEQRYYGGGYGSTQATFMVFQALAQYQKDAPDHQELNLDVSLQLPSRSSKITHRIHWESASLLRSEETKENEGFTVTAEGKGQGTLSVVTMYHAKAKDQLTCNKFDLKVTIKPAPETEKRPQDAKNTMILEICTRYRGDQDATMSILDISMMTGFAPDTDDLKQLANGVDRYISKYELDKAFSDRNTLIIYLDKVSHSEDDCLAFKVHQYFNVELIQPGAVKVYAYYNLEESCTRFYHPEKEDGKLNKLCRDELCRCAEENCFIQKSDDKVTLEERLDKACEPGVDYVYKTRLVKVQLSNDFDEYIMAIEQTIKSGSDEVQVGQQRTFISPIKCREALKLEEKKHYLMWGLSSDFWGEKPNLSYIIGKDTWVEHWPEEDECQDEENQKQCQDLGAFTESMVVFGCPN

activity relative to CA28 on a molar basis, classical complement inhibition assay: ~30% | complement inhibiting activity relative to CA28 on a molar basis: ~30 % of the activity of CA28
B1: CA28-AEEAc-Lys-(PEG40k) (peptide)
peptide: ICVWQDWGAHRCTK
modifications: N-terminal acetyl; 1-methyl-tryptophan at position 4; disulfide Cys2-Cys12; AEEAc (8-amino-3,6-dioxaoctanoic acid) spacer between Thr13 and the C-terminal Lys; linear monofunctional 40 kD PEG coupled (NHS ester) to the Lys side chain; C-terminal amide

activity relative to CA28 on a molar basis, classical complement inhibition assay: ~30% | complement inhibiting activity relative to CA28 on a molar basis: ~30 % of the activity of CA28
B2: CA28-AEEAc-Lys-(PEG30k) (peptide)
peptide: ICVWQDWGAHRCTK
modifications: N-terminal acetyl; 1-methyl-tryptophan at position 4; disulfide Cys2-Cys12; AEEAc (8-amino-3,6-dioxaoctanoic acid) spacer between Thr13 and the C-terminal Lys; linear monofunctional 30 kD PEG coupled (NHS ester) to the Lys side chain; C-terminal amide

IC50 on a molar basis (corrected for 7.5 CA28 moieties per molecule), classical complement inhibition assay (C3b deposition ELISA, human plasma): ~260 nM
B3: (CA28-AEEAc)8-PEG40k (peptide)
peptide: ICVWQDWGAHRCTK
modifications: N-terminal acetyl; 1-methyl-tryptophan at position 4; disulfide Cys2-Cys12; AEEAc spacer between Thr13 and the C-terminal Lys; Lys side chain coupled to one arm of an eight-arm 40 kD PEG (hexaglycerol octa(succinimidyloxyglutaryl)polyoxyethylene); C-terminal amide
